Laboratory results reported in article PMC12145522.

Key:
[1] = molecular target: RNAP-HrpL holoenzyme (His-tagged) (Pseudomonas syringae pv. actinidiae | not stated) (UniProt P37929); assay: MST; RNAP-HrpL holoenzyme labelled with RED-Tris-NTA, 50 nM, titrated with GST-TrpR2 from 0.38 nM to 25 μM; MST buffer; 25℃; Monolith NT.115, medium MST power, 90 % LED power; triplicate
[2] = molecular target: GST tagged TrpR2 (Pseudomonas syringae pv. actinidiae M228); assay: MST

Sequence of UniProt P37929 (P37929 whole entry, looked up): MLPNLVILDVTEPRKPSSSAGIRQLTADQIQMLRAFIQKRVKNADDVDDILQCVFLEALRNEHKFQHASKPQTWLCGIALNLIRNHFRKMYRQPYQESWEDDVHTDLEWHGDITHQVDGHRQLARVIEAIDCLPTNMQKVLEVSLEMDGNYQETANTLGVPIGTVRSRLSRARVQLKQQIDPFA

Substance | Kd [1] | Kd [2]
GST tagged TrpR2 (natural protein) | 2.41 µM | –
RNAP-His | – | 7.75 µM
